Measurements reported in publication PMC3682496.

Biological target: maltose-binding protein (MBP-DHhN) modified with 6-azicholestanol (not stated | Drosophila)
Assay: cross-linking

A stoichiometry N of 1 was found for “Scube2, HA-tagged (from UniProt Q9JJS0 29-997) (natural protein)” in this work.
